The target of the assay is Archaeoglobus fulgidus ferritin (AfFt), empty cage (Archaeoglobus fulgidus) (UniProt O29424). The experiment in a line: UV-vis spectra; AfFt@ samples (AfFt mixed with APEX2-GFP+ at 1:3 under 300 mM NaCl); cargo per cage calculated from the spectra.

“Engineered Ascorbate Peroxidase 2-GFP+36 fusion protein (APEX2-GFP+) (enzyme)”: the stoichiometry N (cargo molecules per cage) is 1.45.

The values are drawn from paper PMC12590944.
